# B1: 2M8U (parent)
# chain: TKAQVIEAFKVFDRDGNGYVTVDYLRKVLNELGDMMPADEIEEMIYEADPQNSGYVQYETFVGMLFL
# Variants of: B1
# Assay: folding stability dG (cDNA display proteolysis); higher = more stable
# Details: PBS, room temperature
row,Variant,folding stability dG
1,TKAQVIEAFKVMDRDGNGYVTVDYLRKVLNELGDMMPADEIEEMIYEADPQNSGYVQYETFVGMLFL [F12M],3.33 kcal/mol
2,TKAQVIEAFKVFTRDGNGYVTVDYLRKVLNELGDMMPADEIEEMIYEADPQNSGYVQYETFVGMLFL [D13T],2.06 kcal/mol
3,TKAQVIEAPKVFDRDGNGYVTVDYLRKVLNELGDMMPADEIEEMIYEADPQNSGYVQYETFVGMLFL [F9P],2.32 kcal/mol
4,TKAQVIEAAKVFDRDGNGYVTVDYLRKVLNELGDMMPADEIEEMIYEADPQNSGYVQYETFVGMLFL [F9A],2.63 kcal/mol
5,TKAQIIEAFKVFDRDGNGYVTVDYLRKVLNELGDMMPADEIEEMIYEADPQNSGYVQYETFVGMLFL [V5I],3.81 kcal/mol
6,TKPQVIEAFKVFDRDGNGYVTVDYLRKVLNELGDMMPADEIEEMIYEADPQNSGYVQYETFVGMLFL [A3P],2.67 kcal/mol
7,TKAQVIEAFKVFDRDGNGYVTVDYLRKVLNELGDMYPADEIEEMIYEADPQNSGYVQYETFVGMLFL [M36Y],3.57 kcal/mol
8,TKAQVIEAFKVFDRDGNGYVTVDYLRKVLNELGDMSPADEIEEMIYEADPQNSGYVQYETFVGMLFL [M36S],3.41 kcal/mol
9,TKAQVIEAFKVFDRDGNGYVTVDYLRKVLNELGDMHPADEIEEMIYEADPQNSGYVQYETFVGMLFL [M36H],3.99 kcal/mol
10,TKAQVIEAFKVFDRDGNGYVTVDYLRKVLNELGDMWPADEIEEMIYEADPQNSGYVQYETFVGMLFL [M36W],4.42 kcal/mol
11,TKAQVIEAFKVFDRDGNGYVTVDYLRKVLNELGDMLPADEIEEMIYEADPQNSGYVQYETFVGMLFL [M36L],3.72 kcal/mol
12,TKAQVIEAFKVFDRDGNGYVTVDYLRKVLNEVGDMMPADEIEEMIYEADPQNSGYVQYETFVGMLFL [L32V],3.26 kcal/mol
13,TKAQVIEAFKVFDRDGNGYVTVDYLRKVLNELGDMMPADEIEEMIYEADPNNSGYVQYETFVGMLFL [Q51N],3.46 kcal/mol
14,TKAQVIEAFKVFDRDGNGYVTVDYLRKVLNELGDMMPADEIEEMIYEADPQNSGYVQYETRVGMLFL [F61R],1.29 kcal/mol
15,TKAQVIEAFKVFDRDGNGYVTVDYLRKVLNELGDMMPADEIEEMIYEADPQNSGYVQYETQVGMLFL [F61Q],1.17 kcal/mol
16,TKAQVIEAFKVFDRDGNGYVTVDYLRKVLNELGDMMPADEIEEMIYEADPQNSGYVQYETKVGMLFL [F61K],1.35 kcal/mol
17,TKAQVIEAFKVFDRDGNGYVTVDYLRKVLNMLGDMMPADEIEEMIYEADPQNSGYVQYETFVGMLFL [E31M],3.74 kcal/mol
18,TKAQVIEAFKVFDRDGNGYVTVDYLRKVLNELGDNMPADEIEEMIYEADPQNSGYVQYETFVGMLFL [M35N],2.96 kcal/mol
19,TKAQVIEAFKVFDRDGNGYVTVDYLRKVLNELGDAMPADEIEEMIYEADPQNSGYVQYETFVGMLFL [M35A],3.09 kcal/mol
20,TKAQVIEAFKVFDRDGNGYVTVDYLRKVLNELGDMMPADEIEEMIYEADPQASGYVQYETFVGMLFL [N52A],3.38 kcal/mol
21,TKAQVIEAFKVFDRDGNGYVTVDYLRKVLNELGDMMPADEIEEMIYEADPQNSGYHQYETFVGMLFL [V56H],2.04 kcal/mol
22,TKAQVIEAFKVFDRDGNGYVTVDYLRKVLNELGDMMPADEIEEMIYEADPQNSGYPQYETFVGMLFL [V56P],1.86 kcal/mol
23,TKAQVIEAFKVFDRDGNGYVTVDYLEKVLNELGDMMPADEIEEMIYEADPQNSGYVQYETFVGMLFL [R26E],2.14 kcal/mol
24,TKAQVIEAFKVFDRDGNGYVTVDYLRKVLNELGDMMPADEIEEMIYEADPQNSGYVQYETFVGGLFL [M64G],3.04 kcal/mol
25,TKAQVIEAFKVFDRDGNGYVTVDYLRKVLNELGDMMPADEIEEMIYEADPQNSGLVQYETFVGMLFL [Y55L],3.35 kcal/mol
26,TKAQVIEAFKVFDRDGNGYVTVDYLRKVLNELGDMMPADEIEEMIYEADPQNSGDVQYETFVGMLFL [Y55D],2.22 kcal/mol
27,TKAQVIEAFKVFDRDGNGYVTVDYLRKVLNELGDMMPADEAEEMIYEADPQNSGYVQYETFVGMLFL [I41A],2.86 kcal/mol

row,Variant,folding stability dG
1,TKAFVIEAFKVFDRDGNGYVTVDYLRKVLNELGDMMPADEIEEMIYEADPQNSGYVQYETFVGMLFL [Q4F],2.87 kcal/mol
2,TKAQVIEAFKVFDRDGNGYVTVDYLRKVLNELGDMMPADPIEEMIYEADPQNSGYVQYETFVGMLFL [E40P],3.22 kcal/mol
3,TKAQVIEAFKVFDRDGNGYVTVDYLRKVLNELGDMMPADVIEEMIYEADPQNSGYVQYETFVGMLFL [E40V],3.74 kcal/mol
4,TKAQVIEAFKVFDRDGNGYVTVDYLRKVLNELGDMMPADHIEEMIYEADPQNSGYVQYETFVGMLFL [E40H],4.01 kcal/mol
5,TKAQVIEAFKVFDRDGNGYVTVDYLRKVLNELGDMMPADEIEEMIYEADPQNSGYVQYETFVHMLFL [G63H],3.72 kcal/mol
6,TKAQVIEAFKVFDRDGNGYVTVVYLRKVLNELGDMMPADEIEEMIYEADPQNSGYVQYETFVGMLFL [D23V],3.54 kcal/mol
7,TKAQVIEAFKVFDRDGNGYVTVAYLRKVLNELGDMMPADEIEEMIYEADPQNSGYVQYETFVGMLFL [D23A],3.58 kcal/mol
8,TKAQVIEAFKVFDRDGNGYVTVHYLRKVLNELGDMMPADEIEEMIYEADPQNSGYVQYETFVGMLFL [D23H],3.84 kcal/mol
9,TKAQVIEAFKVFDRDGNGYVTVDYLRKVLNELGDMMPADEIEEMIYEADPQNSGYVQYETFTGMLFL [V62T],3 kcal/mol
10,TKAQVIEAFKVFDRDGNGYVTVDYLRKVLNELGDMMPADEIEEMIYEADPQNSGYVQFETFVGMLFL [Y58F],2.81 kcal/mol
11,TKAQVQEAFKVFDRDGNGYVTVDYLRKVLNELGDMMPADEIEEMIYEADPQNSGYVQYETFVGMLFL [I6Q],2.31 kcal/mol
12,TKAQVIEAFKSFDRDGNGYVTVDYLRKVLNELGDMMPADEIEEMIYEADPQNSGYVQYETFVGMLFL [V11S],3.56 kcal/mol
13,TKAQVIEAFKVFDRDGNGYVTVDYIRKVLNELGDMMPADEIEEMIYEADPQNSGYVQYETFVGMLFL [L25I],3.14 kcal/mol
14,FKAQVIEAFKVFDRDGNGYVTVDYLRKVLNELGDMMPADEIEEMIYEADPQNSGYVQYETFVGMLFL [T1F],2.91 kcal/mol
15,TKAQVIEAFKVFDRDGNGYVTVDYLRKVLNELGDMMPADEIEEMIYEADPQNSGYVQYETFVGMHFL [L65H],2.65 kcal/mol
16,TKAQVIEAFKVFDRDGNGYVTVDYLRKVLNELGDMMPADEIEEMIYEADPQNSGYVQYETFVGMFFL [L65F],3.28 kcal/mol
17,TKAQVIEAFKVFDRDGNGYVTVDYLRKVLNELGDMMPADEIEEMIYEADPQNSGYVQYETFVGMAFL [L65A],2.23 kcal/mol
18,TKAQVIEAFKVFDRDGNGYVTVDYLRKVLNELGDMMPADEIEEMIYEADPQNSFYVQYETFVGMLFL [G54F],2.89 kcal/mol
19,TKAQVIEAFKVFDRDGNGYVTVDYLRKVLNELGDMMPADEIEEMIYEADPQNCGYVQYETFVGMLFL [S53C],3.18 kcal/mol
20,TKAQVIEAFKVFDGDGNGYVTVDYLRKVLNELGDMMPADEIEEMIYEADPQNSGYVQYETFVGMLFL [R14G],3.35 kcal/mol
21,TKAQVIEAFKVFDMDGNGYVTVDYLRKVLNELGDMMPADEIEEMIYEADPQNSGYVQYETFVGMLFL [R14M],3.69 kcal/mol
22,TKAQVIEAFKVFDFDGNGYVTVDYLRKVLNELGDMMPADEIEEMIYEADPQNSGYVQYETFVGMLFL [R14F],4.03 kcal/mol
23,TKAQVIEAFKVFDRDGNGYVTVDYLRKVLNELGQMMPADEIEEMIYEADPQNSGYVQYETFVGMLFL [D34Q],3.79 kcal/mol
24,TKAQVIEAFKVFDRDGNGYVTVDYLRKVLNELGYMMPADEIEEMIYEADPQNSGYVQYETFVGMLFL [D34Y],4.42 kcal/mol
25,TKAQVIEAFKVFDRDGNGYVTVDTLRKVLNELGDMMPADEIEEMIYEADPQNSGYVQYETFVGMLFL [Y24T],4.42 kcal/mol
26,TKAQVIEAFKVFDRDGNGYVTVDYLRKVLMELGDMMPADEIEEMIYEADPQNSGYVQYETFVGMLFL [N30M],3.63 kcal/mol
27,TKAQVIEAFKVFDRDGNGYVTVDYLRKVLRELGDMMPADEIEEMIYEADPQNSGYVQYETFVGMLFL [N30R],3.54 kcal/mol

row,Variant,folding stability dG
1,TKAQVIEAFKVFDRDGNGYVTVDYLRKVLNELGDMMPADEIEEMIYEADKQNSGYVQYETFVGMLFL [P50K],3.39 kcal/mol
2,TKAQVIEAFKVFDRDGNGYVTVDYLRKVLNELGDMMPADEIEEMIYEADPQNSGYVLYETFVGMLFL [Q57L],3.08 kcal/mol
3,TKAQVIEAFKVFDRDGNGYVTVDYLRKVLNELGDMMPADEIEEMIYEADPQNSGYVFYETFVGMLFL [Q57F],3.62 kcal/mol
4,TKAQVIEAFKVFDRDGNGYVTVDYLRKVLNELGDMMPADEIEEMHYEADPQNSGYVQYETFVGMLFL [I45H],2.08 kcal/mol
5,TKAQVIEAFKVFDRDGNGYVTVDYLRKVLNELQDMMPADEIEEMIYEADPQNSGYVQYETFVGMLFL [G33Q],3.37 kcal/mol
6,TKAQVIEAFKVFDRDGNGYVTVDYLRKVLNELGDMMPADEIEEMIYEADPQNSGYVQYETFVGMLCL [F66C],2.86 kcal/mol
7,TKAQVIEAFKVFDRDGNGYVTVDYLRKVLNELGDMMPADEIEEMIYEADPQNSGYVQYETFVGMLNL [F66N],2.92 kcal/mol
8,TKAQVIEAFKVFDRDGNGYVTVDYLRKVLNELGDMMPADEIEEMIYEADPQNSGYVQYETFVGMLYL [F66Y],2.71 kcal/mol
9,TKAQVIEAFKVFDRDGNGYVTVDYLRKVLNELGDMMPLDEIEEMIYEADPQNSGYVQYETFVGMLFL [A38L],3.59 kcal/mol
10,TKAQVIEAFKVFDRDGNGYVTVDYLRKVLNELGDMMPADEIEEYIYEADPQNSGYVQYETFVGMLFL [M44Y],3.21 kcal/mol
11,TKAQVIEAFKVFDRDGNGYVTVDYLRRVLNELGDMMPADEIEEMIYEADPQNSGYVQYETFVGMLFL [K27R],3.48 kcal/mol
12,TKAQVIEAFKVFDRDGNGYVTVDYLRHVLNELGDMMPADEIEEMIYEADPQNSGYVQYETFVGMLFL [K27H],3.44 kcal/mol
13,TKAQVIEAFKVFDRDGNGYVTVDYLRNVLNELGDMMPADEIEEMIYEADPQNSGYVQYETFVGMLFL [K27N],3.12 kcal/mol
14,TKAQVIEAFKVFDRDGNGYVTVDYLRKELNELGDMMPADEIEEMIYEADPQNSGYVQYETFVGMLFL [V28E],1.63 kcal/mol
15,TKAQVIEAFKVFDRDGNGYVTVDYLRKVLNELGDMMPADEIEEMIEEADPQNSGYVQYETFVGMLFL [Y46E],3.36 kcal/mol
16,TMAQVIEAFKVFDRDGNGYVTVDYLRKVLNELGDMMPADEIEEMIYEADPQNSGYVQYETFVGMLFL [K2M],3.65 kcal/mol
17,TKAQVIEAFKVFDRDWNGYVTVDYLRKVLNELGDMMPADEIEEMIYEADPQNSGYVQYETFVGMLFL [G16W],2.29 kcal/mol
18,TKAQVIEAFKVFDRDFNGYVTVDYLRKVLNELGDMMPADEIEEMIYEADPQNSGYVQYETFVGMLFL [G16F],2.75 kcal/mol
19,TKAQVIEAFKVFDRDGNGYVTVDYLRKVLNELGDMMPADEIEVMIYEADPQNSGYVQYETFVGMLFL [E43V],3.78 kcal/mol
20,TKAQVIEAFKVFDRDGNGYVTVDYLRKVLNELGDMMPADEIEFMIYEADPQNSGYVQYETFVGMLFL [E43F],3.8 kcal/mol
21,TKAQVIEVFKVFDRDGNGYVTVDYLRKVLNELGDMMPADEIEEMIYEADPQNSGYVQYETFVGMLFL [A8V],2.84 kcal/mol
22,TKAQVIENFKVFDRDGNGYVTVDYLRKVLNELGDMMPADEIEEMIYEADPQNSGYVQYETFVGMLFL [A8N],2.81 kcal/mol
23,TKAQVIEPFKVFDRDGNGYVTVDYLRKVLNELGDMMPADEIEEMIYEADPQNSGYVQYETFVGMLFL [A8P],2.02 kcal/mol
24,TKAQVIEEFKVFDRDGNGYVTVDYLRKVLNELGDMMPADEIEEMIYEADPQNSGYVQYETFVGMLFL [A8E],2.59 kcal/mol
25,TKAQVIEAFKVFDRGGNGYVTVDYLRKVLNELGDMMPADEIEEMIYEADPQNSGYVQYETFVGMLFL [D15G],2.75 kcal/mol
26,TKAQVIEAFKVFDRDGNGYKTVDYLRKVLNELGDMMPADEIEEMIYEADPQNSGYVQYETFVGMLFL [V20K],1.46 kcal/mol

# — the MegaScale stability set (Tsuboyama et al. 2023)
